Experimental findings from patent publication US20210380703A1 are described below.

The labels stand for the following.
B1: 367_A12 (antibody, V domains shown)
VH: EVQLLESGGGLVQPGGSLRLSCAASGFTFSSYGMNWVRQAPGKGLEWVSGINYNSGYTSYADSVKGRFTISRDNSKNTLYLQMNSLRAEDTAVYYCARGANWHDTHLDYWGQGTLVTVSS
VL: DIQMTQSPSSLSASVGDRVTITCRASQSILSYLNWYQQKPGKAPKLLIYAATSLHSGVPSRFSGSGSGTDFTLTISSLQPEDFATYYCQQSYNNPLTFGGGTKVEIK
B2: 367_D06 (antibody, V domains shown)
VH: EVQLLESGGGLVQPGGSLRLSCAASGFTFDSYSMNWVRQAPGKGLEWVAGINYNGGYTSYADSVKGRFTISRDNSKNTLYLQMNSLRAEDTAVYYCARGANWHDTHLDYWGQGTLVTVSS
VL: DIQMTQSPSSLSASVGDRVTITCRASQSISTYLNWYQQKPGKAPKLVIYAATSLASGVPSRFSGSGSGTDFTLTISSLQPEDFATYYCQQSYNSPLTFGGGTKVEIK
B3: 367_G04 (antibody, V domains shown)
VH: EVQLLESGGGLVQPGGSLRLSCAASGFTFSSYSMNWVRQAPGKGLEWVAGINYNSGYTSYADSVKGRFTISRDNSKNTLYLQMNSLRAEDTAVYYCARGANWHDTHLDYWGQGTLVTVSS
VL: DIQMTQSPSSLSASVGDRVTITCRASQSILSYLNWYQQKPGKAPKLVIYAATSRASGVPSRFSGSGSGTDFTLTISSLQPEDFATYYCQQSYDSPLTFGGGTKVEIK
B4: 368_F09 (antibody, V domains shown)
VH: EVQLLESGGGLVQPGGSLRLSCAASGFTFSSYGMNWVRQAPGKGLEWVSGINYNSGYTSYADSVKGRFTISRDNSKNTLYLQMNSLRAEDTAVYYCARGANWHDTHLDYWGQGTLVTVSS
VL: DIQMTQSPSSLSASVGDRVTITCRASQSILTYLNWYQQKPGKAPKLLIYAASSLQSGVPSRFSGSGSGTDFTLTISSLQPEDFATYYCQQSYETPLTFGGGTKVEIK
B5: 367_D03 (antibody, V domains shown)
VH: EVQLLESGGGLVQPGGSLRLSCAASGFTFDSYSMNWVRQAPGKGLEWVSSINYNGGYTGYADSVKGRFTISRDNSKNTLYLQMNSLRAEDTAVYYCARGANWHDTHLDYWGQGTLVTVSS
VL: DIQMTQSPSSLSASVGDRVTITCRASQSIITYLNWYQQKPGKAPKLLIYAATSRASGVPSRFSGSGSGTDFTLTISSLQPEDFATYYCQQSYDTPLTFGGGTKVEIK
B6: 368_A03 (antibody, V domains shown)
VH: EVQLLESGGGLVQPGGSLRLSCAASGFTFSSYSMNWVRQAPGKGLEWVSGINYNGGYTGYADSVKGRFTISRDNSKNTLYLQMNSLRAEDTAVYYCARGANWHDTHLDYWGQGTLVTVSS
VL: DIQMTQSPSSLSASVGDRVTITCRASQSIISYLNWYQQKPGKAPKLLIYAVTSRASGVPSRFSGSGSGTDFTLTISSLQPEDFATYYCQQSYENPLTFGGGTKVEIK
B7: 367_D08 (antibody, V domains shown)
VH: EVQLLESGGGLVQPGGSLRLSCAASGFTFSDYSMNWVRQAPGKGLEWVAGINYNGGYTSYADSVKGRFTISRDNSKNTLYLQMNSLRAEDTAVYYCARGANWHDTHLDYWGQGTLVTVSS
VL: DIQMTQSPSSLSASVGDRVTITCRASQSILSYLNWYQQKPGKAPKLVIYAATSRHSGVPSRFSGSGSGTDFTLTISSLQPEDFATYYCQQSDDLPLTFGGGTKVEIK
B8: 367_E05 (antibody, V domains shown)
VH: EVQLLESGGGLVQPGGSLRLSCAASGFTFSSYGMNWVRQAPGKGLEWVAGINYNGGYTSYADSVKGRFTISRDNSKNTLYLQMNSLRAEDTAVYYCARGANWHDTHLDYWGQGTLVTVSS
VL: DIQMTQSPSSLSASVGDRVTITCRASQSILSYLNWYQQKPGKAPKLLIYAATSRHSGVPSRFSGSGSGTDFTLTISSLQPEDFATYYCQQSYDSPLTFGGGTKVEIK
B9: 366_G06 (antibody, V domains shown)
VH: EVQLLESGGGLVQPGGSLRLSCAASGFTFSSYGMHWVRQAPGKGLEWVASINYNGGYTGYADSVKGRFTISRDNSKNTLYLQMNSLRAEDTAVYYCARAANWHDTHLDYWGQGTLVTVSS
VL: DIQMTQSPSSLSASVGDRVTITCRASQSIVSYVNWYQQKPGKAPKLVIYAATSRASGVPSRFSGSGSGTDFTLTISSLQPEDFATYYCQQSYDNPLTFGGGTKVEIK
B10: 367_G01 (antibody, V domains shown)
VH: EVQLLESGGGLVQPGGSLRLSCAASGFTFDSYGMNWVRQAPGKGLEWVASINYNSGYTGYADSVKGRFTISRDNSKNTLYLQMNSLRAEDTAVYYCARGANWHDTHLDYWGQGTLVTVSS
VL: DIQMTQSPSSLSASVGDRVTITCRASQSISSYLNWYQQKPGKAPKLVIYAATSRASGVPSRFSGSGSGTDFTLTISSLQPEDFATYYCQQSYDLPLTFGGGTKVEIK
B11: 367_C10 (antibody, V domains shown)
VH: EVQLLESGGGLVQPGGSLRLSCAASGFTFDSYSMNWVRQAPGKGLEWVSGINYNGGYTSYADSVKGRFTISRDNSKNTLYLQMNSLRAEDTAVYYCARGANWHDTALDYWGQGTLVTVSS
VL: DIQMTQSPSSLSASVGDRVTITCRASQSIVSYVNWYQQKPGKAPKLLIYAVTSRASGVPSRFSGSGSGTDFTLTISSLQPEDFATYYCQQSYETPLTFGGGTKVEIK
B12: 367_B04 (antibody, V domains shown)
VH: EVQLLESGGGLVQPGGSLRLSCAASGFTFDSYSMNWVRQAPGKGLEWVSGINYNSGYKSYADSVKGRFTISRDNSKNTLYLQMNSLRAEDTAVYYCARGANWHDTHLDYWGQGTLVTVSS
VL: DIQMTQSPSSLSASVGDRVTITCRASQSILSYLNWYQQKPGKAPKLLIYAATSRASGVPSRFSGSGSGTDFTLTISSLQPEDFATYYCQQSYELPLTFGGGTKVEIK
B13: 366_F10 (antibody, V domains shown)
VH: EVQLLESGGGLVQPGGSLRLSCAASGFTFDSYSMNWVRQAPGKGLEWVAGINYNGGYTGYADSVKGRFTISRDNSKNTLYLQMNSLRAEDTAVYYCARAANWHDTHLDYWGQGTLVTVSS
VL: DIQMTQSPSSLSASVGDRVTITCRASQSIVSYLNWYQQKPGKAPKLVIYAATSRASGVPSRFSGSGSGTDFTLTISSLQPEDFATYYCQQSYDTPLTFGGGTKVEIK
B14: 367_D12 (antibody, V domains shown)
VH: EVQLLESGGGLVQPGGSLRLSCAASGFTFSSYSMNWVRQAPGKGLEWVSSINYNGGYTGYADSVKGRFTISRDNSKNTLYLQMNSLRAEDTAVYYCARGANWHDTHLDYWGQGTLVTVSS
VL: DIQMTQSPSSLSASVGDRVTITCRASQSIVSYVNWYQQKPGKAPKLVIYAATSRASGVPSRFSGSGSGTDFTLTISSLQPEDFATYYCQQSYESPLTFGGGTKVEIK
B15: 367_B12 (antibody, V domains shown)
VH: EVQLLESGGGLVQPGGSLRLSCAASGFTFSSYGMHWVRQAPGKGLEWVASINYNGGYKSYADSVKGRFTISRDNSKNTLYLQMNSLRAEDTAVYYCARGANWHDTHLDYWGQGTLVTVSS
VL: DIQMTQSPSSLSASVGDRVTITCRASQSILSYVNWYQQKPGKAPKLVIYAATSLASGVPSRFSGSGSGTDFTLTISSLQPEDFATYYCQQSYDTPLTFGGGTKVEIK
B16: 368_E12 (antibody, V domains shown)
VH: EVQLLESGGGLVQPGGSLRLSCAASGFTFSDYGMNWVRQAPGKGLEWVAGINYNGGYTSYADSVKGRFTISRDNSKNTLYLQMNSLRAEDTAVYYCARGANWHDTHLDYWGQGTLVTVSS
VL: DIQMTQSPSSLSASVGDRVTITCRASQSIVSYVNWYQQKPGKAPKLVIYAVTSRASGVPSRFSGSGSGTDFTLTISSLQPEDFATYYCQQSYDSPLTFGGGTKVEIK
B17: 367_H03 (antibody, V domains shown)
VH: EVQLLESGGGLVQPGGSLRLSCAASGFTFSSYGMNWVRQAPGKGLEWVAGINYNSGYTSYADSVKGRFTISRDNSKNTLYLQMNSLRAEDTAVYYCARGANWHDTHLDYWGQGTLVTVSS
VL: DIQMTQSPSSLSASVGDRVTITCRASQSIITYVNWYQQKPGKAPKLLIYAATSLASGVPSRFSGSGSGTDFTLTISSLQPEDFATYYCQQSYDLPLTFGGGTKVEIK
B18: 367_C07 (antibody, V domains shown)
VH: EVQLLESGGGLVQPGGSLRLSCAASGFTFSSYSMNWVRQAPGKGLEWVSSINYNSGYTGYADSVKGRFTISRDNSKNTLYLQMNSLRAEDTAVYYCARGANWHDTHLDYWGQGTLVTVSS
VL: DIQMTQSPSSLSASVGDRVTITCRASQSILTYVNWYQQKPGKAPKLLIYAATSRASGVPSRFSGSGSGTDFTLTISSLQPEDFATYYCQQSYNLPLTFGGGTKVEIK
B19: 368_A04 (antibody, V domains shown)
VH: EVQLLESGGGLVQPGGSLRLSCAASGFTFDDYSMNWVRQAPGKGLEWVAGINYNGGYKSYADSVKGRFTISRDNSKNTLYLQMNSLRAEDTAVYYCARGANWHDTHLDYWGQGTLVTVSS
VL: DIQMTQSPSSLSASVGDRVTITCRASQSILTYLNWYQQKPGKAPKLVIYAVTSRASGVPSRFSGSGSGTDFTLTISSLQPEDFATYYCQQSYELPLTFGGGTKVEIK
B20: 368_H02 (antibody, V domains shown)
VH: EVQLLESGGGLVQPGGSLRLSCAASGFTFSSYGMNWVRQAPGKGLEWVAGINYNSGYTSYADSVKGRFTISRDNSKNTLYLQMNSLRAEDTAVYYCARGANWHDTALDYWGQGTLVTVSS
VL: DIQMTQSPSSLSASVGDRVTITCRASQSIVTYLNWYQQKPGKAPKLVIYAATSRASGVPSRFSGSGSGTDFTLTISSLQPEDFATYYCQQSYESPLTFGGGTKVEIK
B21: 368_B09 (antibody, V domains shown)
VH: EVQLLESGGGLVQPGGSLRLSCAASGFTFDSYGMNWVRQAPGKGLEWVSNINYNGGYKGYADSVKGRFTISRDNSKNTLYLQMNSLRAEDTAVYYCARGANWHDTHLDYWGQGTLVTVSS
VL: DIQMTQSPSSLSASVGDRVTITCRASQSILSYLNWYQQKPGKAPKLLIYAATSRHSGVPSRFSGSGSGTDFTLTISSLQPEDFATYYCQQSYDTPLTFGGGTKVEIK

This test has as its target human Fc (human). As to the kind of experiment: ELISA, negative control. A general note: In an ELISA, binding on a coated surface is turned into a signal by an enzyme label.
Turning to B1, the optical density was 0.39 OD. Next, B2: 0.283 OD; B3: 0.287 OD. On to B4, for which the optical density turned out to be 0.242 OD. For the molecule B5, the optical density amounted to 0.29 OD. Consider B6, for which the optical density was 0.348 OD.

The molecule B7 returned an optical density of 0.237 OD.

B8 displayed an optical density of 0.333 OD. For the molecule B9, the optical density was 0.341 OD. As to B10, the optical density is 0.356 OD. The same measure for B11: 0.233 OD. B12 returned an optical density of 0.265 OD. In turn, B13 gave an optical density of 0.28 OD. Next, B14: 0.309 OD; B15: 0.414 OD. The molecule B16 had an optical density of 0.347 OD. On to B17, for which the optical density was 0.377 OD.

B18 registered an optical density of 0.387 OD. The molecule B19 returned an optical density of 0.283 OD. For B20, the optical density turned out to be 0.348 OD. On to B21, for which the optical density came to 0.258 OD.
